This is an account of results in publication PMC3549492.

For experiment [1], the target named is N-terminal HaloTag human KIF1A (amino acids 1-361) fusion protein (human) (UniProt Q12756). The experiment in a line: pull-down; HaloTag-Kif1a (1-361) on HaloLink magnetic beads under saturated conditions; MTs with or without full-length human Dcx; 5 μM of each protein; 4 mM ATP, ADP or AMP-PNP; supernatant and pellet, silver staining, densitometry, bound fraction P/(S+P) normalized to ATP without Dcx.

For experiment [2], the target named is MTs of the traditional MT pull-down assay from lysates. Nature of the experiment: pull-down; traditional MT pull-down assay with AMP-PNP; lysates from HEK cells expressing Kif1 (1-365) with or without Dcx (amino acids 1-270); excess MTs.

porcine MTs (microtubules) (complex): the fold increase of Kif1a-MT binding with Dcx in the presence of ADP, against a Dcx-negative control in experiment [1] was 2 fold.

B1: motor domain of Kif1 (amino acids 1-365) (domain or fragment)
chain: MAGASVKVAVRVRPFNSREMSRDSKCIIQMSGSTTTIVNPKQPKETPKSFSFDYSYWSHTSPEDINYASQKQVYRDIGEEMLQHAFEGYNVCIFAYGQTGAGKSYTMMGKQEKDQQGIIPQLCEDLFSRINDTTNDNMSYSVEVSYMEIYCERVRDLLNPKNKGNLRVREHPLLGPYVEDLSKLAVTSYNDIQDLMDSGNKARTVAATNMNETSSRSHAVFNIIFTQKRHDAETNITTEKVSKISLVDLAGSERADSTGAKGTRLKEGANINKSLTTLGKVISALAEMDSGPNKNKKKKKTDFIPYRDSVLTWLLRENLGGNSRTAMVAALSPADINYDETLSTLRYADRAKQIRCNAVINEDPN
Consider B1, for which, in experiment [2], the increase in binding of Kif1a to MTs with Dcx (amino acids 1-270) over control lay in the range of 15 to 20%.
